Substitutions are numbered along the chain they refer to.
How the values were obtained:
[1] = target: T1, Alexa Fluor 488-LAETGG
T1 chain: KLAETGG

[2] = target: T2, Alexa Fluor 647-LPESGG
T2 chain: KLPESGG

[3] = target: T3, Gly-Gly-Gly-COOH
T3 chain: GGG

[4] = target: T4, Abz-LPETGK(Dnp)-CONH2
T4 chain: LPETGK

[5] = target: T5, Abz-LAETGK(Dnp)-CONH2
T5 chain: LAETGK

[6] = target: T6, Abz-LPESGK(Dnp)-CONH2
T6 chain: LPESGK

[7] = target: T7, Abz-LRETGK(Dnp)-CONH2
T7 chain: LRETGK

[8] = target: T8, Abz-LSETGK(Dnp)-CONH2
T8 chain: LSETGK

B1: eSrtA(2A-9) (protein)
chain: QAKPQIPKDKSKVAGYIEIPDADIKEPVYPGPATREQLNRGVCFHDENESLDDQNISIAGHTFIDRPNYQFTNLKAAKPGSMVYFKVGNETRIYKMTSIRKVHPNAVEVLDEQEGKDKQLTLVTCDDYNEETGVWESRKIFVATEVK
[1]
  conjugation of fluorophore-peptide to GGG-diblock (gel fluorescence), cognate pair: Significant peptide-diblock conjugation was observed only for cognate pairs of enzyme and substrate, with no detectable off-target substrate conjugation
  modification of GGG-PEG-functionalized 96-well plates (fluorescence), cognate pair: Each enzyme exhibited significant modification only on its cognate substrate
[2]
  conjugation of fluorophore-peptide to GGG-diblock (gel fluorescence), non-cognate pair: no detectable off-target substrate conjugation
  modification of GGG-PEG-functionalized 96-well plates (fluorescence), non-cognate pair: no significant modification: Each enzyme exhibited significant modification only on its cognate substrate
[3]
  Avg KM (uM) for GGG; with LAETG (2A) peptide: 1480 µM
  Avg kcat/KM for GGG; with LAETG (2A) peptide: 1070
  Km,GGG (µM); listed substrate LAETG: 1480 µM
  Km,GGG (µM); listed substrate LPETG: 585 µM
  Km,GGG (µM); listed substrate LRETG: 628 µM
  Km,GGG (µM); listed substrate LSETG: 1270 µM
[4]
  Avg KM: 1270 µM
  Avg kcat/KM: 16.5
  Km: 1270 µM
  Rel. Activity (fold below the enzyme's best substrate, LAETG): 510 fold
  kcat/Km: 16.5 M⁻¹ s⁻¹
[5]
  Avg KM: 265 µM
  Avg kcat/KM: 8420
  Km: 265 µM
  Specificity (relative catalytic efficiency, fold), LAETG over LPETG: 510 fold
  kcat/Km: 8420 M⁻¹ s⁻¹
[6]
  Km: 4800 µM
  Rel. Activity (fold below the enzyme's best substrate, LAETG): 5940 fold
  kcat/Km: 1.42 M⁻¹ s⁻¹
[7]
  Km: 1070 µM
  kcat/Km: 233 M⁻¹ s⁻¹
[8]
  Km: 331 µM
  kcat/Km: 355 M⁻¹ s⁻¹

B2: 2A.6C (protein)
chain: B1 chain with C43S, D46E, H103R, N105T, E114K, S137T
[3]
  Km, GGG (uM); with LAETG peptide: 642 µM
[4]
  Km, LxExG: 1980 µM
  kcat/Km (Hz/M): 38.7 Hz/M
[5]
  Km, LxExG: 343 µM
  increased affinity for the LAETG substrate as compared to the LPETG substrate: from ˜61 (2A.6c) to ˜116fold (2Ar5)
  kcat/Km (Hz/M): 2380 Hz/M
  specificity (relative cat. Efficiency, fold), LAETG over LPETG: 61.6 fold

B3: eSrtA(2A-5) (protein)
chain: B1 chain with R40H, C43S, D46E, P79I, I93K, K101N, H103R, N105T, E114K, S137T
[3]
  Km, GGG (uM); with LAETG peptide: 2810 µM
[4]
  Km, LxExG: 4900 µM
  kcat/Km (Hz/M): 28.1 Hz/M
[5]
  Km, LxExG: 433 µM
  increase in kcat/Km, LAETG substrate against LPETG substrate: from ˜40-fold (2Ar4) to ˜125-fold (2Ar5) increase in kcat/Km
  increased affinity for the LAETG substrate as compared to the LPETG substrate: from ˜61 (2A.6c) to ˜116fold (2Ar5)
  kcat/Km (Hz/M): 3260 Hz/M
  specificity (relative cat. Efficiency, fold), LAETG over LPETG: 116 fold
